Data taken from paper PMC9331606 (2022).

B1: Halo-tagged human cytomegalovirus immediate early 1 protein (hIE1) [human cytomegalovirus (HCMV)] / NanoLuciferase-tagged human promyelocytic leukemia protein (hPML) [human] (parent complex)
chain 1: MESSAKRKMDPDNPDEGPSSKVPRPETPVTKATTFLQTMLRKEVNSQLSLGDPLFPELAEESLKTFEQVTEDCNENPEKDVLAELVKQIKVRVDMVRHRIKEHMLKKYTQTEEKFTGAFNMMGGCLQNALDILDKVHEPFEEMKCIGLTMQSMYENYIVPEDKREMWMACIKELHDVSKGAANKLGGALQAKARAKKDELRRKMMYMCYRNIEFFTKNSAFPKTTNGCSQAMAALQNLPQCSPDEIMAYAQKIFKILDEERDKVLTHIDHIFMDILTTCVETMCNEYKVTSDACMMTMYGGISLLSEFCRVLCCYVLEETSVMLAKRPLITKPEVISVMKRRIEEICMKVFAQYILGADPLRVCSPSVDDLRAIAEESDEEEAIVAYTLATAGVSSSDSLVSPPESPVPATIPLSSVIVAENSDQEESEQSDEEEEEGAQEEREDTVSVKSEPVSEIEEVAPEEEEDGAEEPTASGGKSTHPMVTRSKADQ
chain 2: MEPAPARSPRPQQDPARPQEPTMPPPETPSEGRQPSPSPSPTERAPASEEEFQFLRCQQCQAEAKCPKLLPCLHTLCSGCLEASGMQCPICQAPWPLGADTPALDNVFFESLQRRLSVYRQIVDAQAVCTRCKESADFWCFECEQLLCAKCFEAHQWFLKHEARPLAELRNQSVREFLDGTRKTNNIFCSNPNHRTPTLTSIYCRGCSKPLCCSCALLDSSHSELKCDISAEIQQRQEELDAMTQALQEQDSAFGAVHAQMHAAVGQLGRARAETEELIRERVRQVVAHVRAQERELLEAVDARYQRDYEEMASRLGRLDAVLQRIRTGSALVQRMKCYASDQEVLDMHGFLRQALCRLRQEEPQSLQAAVRTDGFDEFKVRLQDLSSCITQGKDAAVSKKASPEAASTPRDPIDVDLPEEAERVKAQVQALGLAEAQPMAVVQSVPGAHPVPVYAFSIKGPSYGEDVSNTTTAQKRKCSQTQCPRKVIKMESEEGKEARLARSSPEQPRPSTSKAVSPPHLDGPPSPRSPVIGSEVFLPNSNHVASGAGEAEERVVVISSSEDSDAENSSSRELDDSSSESSDLQLEGPSTLRVLDENLADPQAEDRPLVFFDLKIDNETQKISQLAAVNRESKFRVVIQPEAFFSIYSKAVSLEVGLQHFLSFLSSMRRPILACYKLWGPGLPNFFRALEDINRLWEFQEAISGFLAALPLIRERVPGASSFKLKNLAQTYLARNMSERSAMAAVLAMRDLCRLLEVSPGPQLAQHVYPFSSLQCFASLQPLVQAAVLPRAEARLLALHNVSFMELLSAHRRDRQGGLKKYSRYLSLQTTTLPPAQPAFNLQALGTYFEGLLEGPALARAEGVSTPLAGRGLAERASQQS

Variants of: B1
Assay: NanoBRET; HEK293T cells transfected 24 h; 4 h incubation with Halo ligand; detection time 5 s at 618 nm and 448 nm; parent: 23; read off a plot

Variant | response [mBU]
chain 1 L174P | ~1.2
